The record followed here is patent US20200140551A1 (GlaxoSmithKline, published 2020).

Test [1] addresses T1, human ICOS on human T cells (human, UniProt Q9Y6W8 21-167).
T1 construct: endogenous receptor on primary cells; also called ICOS on CD4+ and CD8+ T cells of healthy human donors
T1 sequence: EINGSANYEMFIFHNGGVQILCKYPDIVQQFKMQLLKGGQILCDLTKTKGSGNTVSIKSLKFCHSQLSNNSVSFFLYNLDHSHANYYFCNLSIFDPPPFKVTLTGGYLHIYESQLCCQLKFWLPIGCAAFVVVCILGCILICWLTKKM
Briefly: flow cytometry, activated human CD4 T cells, FITC MFI, donor 1123F59. How it is done:
(§1) Binding of H2L5 hIgG4PE was assessed in both naive and activated CD3+ T cells.
(§2) Either naive and/or activated CD3+ T cells were re-suspended in PBS with 0.1% BSA (FACS Buffer) containing Human FcR Blocking Solution at 2×10⁶ cells/mL (5 μl FcR Blocking Solution+[…] FACS Buffer per 1 mL). At a concentration of 2×10⁵ cells/well, 100 μl cells were placed into 2 mL 96 well Assay Blocks and incubated at room temperature for 15 minutes. During the incubation, a titration of the binding antibodies, anti-ICOS (H2L5 hIgG4PE) or IgG4 Isotype Control antibody was prepared as a 2× concentration. […] Following the binding incubation, cells were washed twice in 1 mL of FACS buffer, centrifuging at 400×g for 5 minutes at room temperature.
(§3) Data acquisition and compensation were performed on BD FACS instruments, LSR Fortessa X-20 or FACS Canto II using BD Diva (ver. 8.0) software. Data analysis employed Flow Jo software (ver.10.0.8r1). Results are reported as both MFI (Median Fluorescence Intensity) and Percent of cells positive for human IgG kappa light chain FITC staining out of the total live cells or appropriate parent population. EC50s were determined using Graphpad Prism 5 software (ver. 5.04) with non-linear regression of transformed data (X=(log(X)) using a variable slope with 4 parameters (log(Agonist) vs. response—Variable slope).

For test [2], the target named is T1, human ICOS on human T cells. The test can be described thus: flow cytometry, activated human CD4 T cells, FITC MFI, donor 1124F36. How it is done: as §1, §2, §3
Test [3] shares this target. Briefly: flow cytometry, activated human CD4 T cells, FITC MFI, donor 1149M52. How it is done: as §1, §2, §3
For test [4] the target is unchanged. The test can be described thus: flow cytometry, activated human CD4 T cells, FITC MFI, donor 1173F42. How it is done:
as §2, §3

Test [5] has the same target. Briefly: flow cytometry, activated human CD8 T cells, FITC MFI, donor 1124F36. How it is done:
as §1, §2, §3

Test [6] shares this target. The test can be described thus: flow cytometry, activated human CD8 T cells, FITC MFI, donor 1173F42. How it is done: as §2, §3
Test [7] shares this target. Briefly: flow cytometry, activated human CD4 T cells, FITC MFI, mean of donors. How it is done:
as §2, §3

The target is the same in test [8]. The test can be described thus: flow cytometry, activated human CD4 T cells, FITC MFI, median of donors. How it is done:
as §1, §2, §3

The target of the next test is T2, human FcγR IIa H131 (human, UniProt P12318 36-218, limits assumed).
T2 sequence (looked up): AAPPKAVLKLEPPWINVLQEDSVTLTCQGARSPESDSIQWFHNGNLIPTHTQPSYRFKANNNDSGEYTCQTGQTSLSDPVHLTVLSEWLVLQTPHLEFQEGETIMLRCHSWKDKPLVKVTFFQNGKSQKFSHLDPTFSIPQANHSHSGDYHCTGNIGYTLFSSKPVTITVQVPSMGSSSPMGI
The test can be described thus: affinity to human Fcγ receptors (Table 6; NB = no binding); method not described.

A further test addresses T3, human FcγR IIIa V158 (human, UniProt P08637 17-208).
T3 construct: allotype with Val at position 158 as printed
The description is as above.

The target in a further test is T4, human FcγR IIIa F158 (human, UniProt P08637 17-208).
T4 construct: allotype with Phe at position 158 as printed
T4 sequence (P08637 17-208 limits assumed): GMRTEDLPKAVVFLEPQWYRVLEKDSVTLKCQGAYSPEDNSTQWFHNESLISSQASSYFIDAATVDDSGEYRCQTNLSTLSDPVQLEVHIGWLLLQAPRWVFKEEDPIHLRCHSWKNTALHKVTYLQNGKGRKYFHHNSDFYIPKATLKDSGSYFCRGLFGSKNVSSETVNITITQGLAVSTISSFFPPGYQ
Described as above.

Test [9] addresses T1, human ICOS on human T cells. Briefly: flow cytometry, activated human CD4 T cells, percent FITC positive, donor 1123F59. How it is done: as §1, §2, §3
For test [10] the target is unchanged. Briefly: flow cytometry, activated human CD4 T cells, percent FITC positive, donor 1124F36. How it is done:
as §1, §2, §3

Test [11] has the same target. Briefly: flow cytometry, activated human CD4 T cells, percent FITC positive, donor 1141F45. How it is done: as §2, §3
For test [12] the target is unchanged. Briefly: flow cytometry, activated human CD4 T cells, percent FITC positive, donor 1149M52. How it is done: as §1, §2, §3
The target is the same in test [13]. The test can be described thus: flow cytometry, activated human CD4 T cells, percent FITC positive, donor 1173F42. How it is done:
as §1, §2, §3

For test [14] the target is unchanged. Briefly: flow cytometry, activated human CD4 T cells, percent FITC positive, donor 2100M39. How it is done:
as §2, §3

Test [15] has the same target. The test can be described thus: flow cytometry, activated human CD8 T cells, percent FITC positive, donor 1124F36. How it is done: as §1, §2, §3
The target is the same in test [16]. The test can be described thus: flow cytometry, activated human CD4 T cells, percent FITC positive, mean of donors. How it is done: as §1, §2, §3
Test [17] shares this target. The test can be described thus: flow cytometry, activated human CD8 T cells, percent FITC positive, median of donors. How it is done: as §1, §2, §3

T3 sequence (P08637 17-208 F176V limits assumed): as the sequence (P08637 17-208 limits assumed) above, with F160V counted along it

B1: H2L5 hIgG4PE (antibody)
heavy: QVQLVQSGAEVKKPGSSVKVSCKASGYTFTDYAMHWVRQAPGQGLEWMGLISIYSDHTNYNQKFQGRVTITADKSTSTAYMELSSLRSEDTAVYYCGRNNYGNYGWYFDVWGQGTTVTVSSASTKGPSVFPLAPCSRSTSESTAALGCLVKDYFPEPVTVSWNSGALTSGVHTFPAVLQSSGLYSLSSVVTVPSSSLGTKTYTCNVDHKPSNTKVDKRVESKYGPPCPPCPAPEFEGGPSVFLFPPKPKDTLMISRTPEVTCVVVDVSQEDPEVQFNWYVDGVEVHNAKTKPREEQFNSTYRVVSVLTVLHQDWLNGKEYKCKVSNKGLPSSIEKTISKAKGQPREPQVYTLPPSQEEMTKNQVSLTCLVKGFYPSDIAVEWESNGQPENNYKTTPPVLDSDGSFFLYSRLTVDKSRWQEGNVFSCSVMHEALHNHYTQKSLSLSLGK
light: EIVLTQSPATLSLSPGERATLSCSASSSVSYMHWYQQKPGQAPRLLIYDTSKLASGIPARFSGSGSGTDYTLTISSLEPEDFAVYYCFQGSGYPYTFGQGTKLEIKRTVAAPSVFIFPPSDEQLKSGTASVVCLLNNFYPREAKVQWKVDNALQSGNSQESVTEQDSKDSTYSLSSTLTLSKADYEKHKVYACEVTHQGLSSPVTKSFNRGEC
notes: also called 422 H2L5 hIgG4PE; H2L5 IgG4PE; copies: 2 + 2
Turning to B1, the EC50 worked out at 1.04 µg/mL in test [1]; 0.628 µg/mL in test [2]; 1.31 µg/mL in test [3]; 0.636 µg/mL in [4]; 0.564 µg/mL in test [5]; 0.27 µg/mL in [6]. For the same molecule, the concentration giving a half-maximal response (EC50) is 0.977 µg/mL in test [7]; 1.04 µg/mL in test [8]; 0.853 µg/mL in test [9]; 0.45 µg/mL in [10]; 0.965 µg/mL in test [11]; 0.882 µg/mL in test [12]. Moreover, the EC50 in [13] came to 0.612 µg/mL; in [14] it was 0.814 µg/mL; in [15], 0.619 µg/mL; in test [16] it was 0.763 µg/mL; in [17], 0.583 µg/mL. Also, the binding result with human FcγR IIa H131, with human FcγR IIIa V158 and with human FcγR IIIa F158 was “no binding” in each case.
